Measured values published in patent US20240109965A1 (Ablynx, published 2024).

T1: cynomolgus TCRαβ-zipper protein (cynomolgus)
T1 construct: also called cyTCR(AEA41865)-zipper; CynoTCRαβ-zipper
T1 TCR alpha: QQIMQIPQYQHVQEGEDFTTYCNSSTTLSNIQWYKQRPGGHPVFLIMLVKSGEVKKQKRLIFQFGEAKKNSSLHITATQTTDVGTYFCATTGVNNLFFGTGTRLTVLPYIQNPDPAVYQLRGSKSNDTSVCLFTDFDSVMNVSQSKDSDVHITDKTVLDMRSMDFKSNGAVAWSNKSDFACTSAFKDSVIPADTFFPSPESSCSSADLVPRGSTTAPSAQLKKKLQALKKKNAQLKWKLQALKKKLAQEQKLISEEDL
T1 TCR beta: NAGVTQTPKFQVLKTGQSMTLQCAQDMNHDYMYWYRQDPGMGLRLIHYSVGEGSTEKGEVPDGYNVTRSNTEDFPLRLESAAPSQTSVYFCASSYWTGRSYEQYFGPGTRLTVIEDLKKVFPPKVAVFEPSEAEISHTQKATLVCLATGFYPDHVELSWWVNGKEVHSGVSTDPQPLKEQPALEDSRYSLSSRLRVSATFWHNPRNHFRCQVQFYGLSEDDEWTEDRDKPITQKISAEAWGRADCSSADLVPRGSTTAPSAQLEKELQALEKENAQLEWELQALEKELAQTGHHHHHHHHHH

B1: T017000700 (VHH)
VHH: EVQLVESGGGVVQPGGSLRLSCVASGYVHKINFYGWYRQAPGKEREKVAHISIGDQTDYADSAKGRFTISRDESKNTVYLQMNSLRPEDTAAYYCRALSRIWPYDYWGQGTLVTVSS
B2: T017000938 (VHH)
VHH: EVQLVESGGGVVQPGGSLRLSCVASGYVHKINFYGWYRQAPGKEREKVAHISIGDQTDYAPSAKGRFTISRDESKNTVYLQMNSLRPEDTAAYYCRALSRIWPYDYWGQGTLVTVSS
B3: T017000940 (VHH)
VHH: EVQLVESGGGVVQPGGSLRLSCVASGYVHKINFYGWYRQAPGKEREKVAHISIGDQTDYARSAKGRFTISRDESKNTVYLQMNSLRPEDTAAYYCRALSRIWPYDYWGQGTLVTVSS
B4: T017000944 (VHH)
VHH: EVQLVESGGGVVQPGGSLRLSCVASGYVHKINFYGWYRQAPGKEREKVAHISIGDQTDYAVSAKGRFTISRDESKNTVYLQMNSLRPEDTAAYYCRALSRIWPYDYWGQGTLVTVSS
B5: T017000945 (VHH)
VHH: EVQLVESGGGVVQPGGSLRLSCVASGYVHKINFYGWYRQAPGKEREKVAHISIGDQTDYAESAKGRFTISRDESKNTVYLQMNSLRPEDTAAYYCRALSRIWPYDYWGQGTLVTVSS
B6: T017000946 (VHH)
VHH: EVQLVESGGGVVQPGGSLRLSCVASGYVHKINFYGWYRQAPGKEREKVAHISIGDQTDYAASAKGRFTISRDESKNTVYLQMNSLRPEDTAAYYCRALSRIWPYDYWGQGTLVTVSS
B7: T017000949 (VHH)
VHH: EVQLVESGGGVVQPGGSLRLSCVASGYVHKINFYGWYRQAPGKEREKVAHISIGDQTDYAQSAKGRFTISRDESKNTVYLQMNSLRPEDTAAYYCRALSRIWPYDYWGQGTLVTVSS
B8: T017000951 (VHH)
VHH: EVQLVESGGGVVQPGGSLRLSCVASGYVHKINFYGWYRQAPGKEREKVAHISIGDQTDYASSAKGRFTISRDESKNTVYLQMNSLRPEDTAAYYCRALSRIWPYDYWGQGTLVTVSS
B9: T017000967 (VHH)
VHH: EVQLVESGGGVVQPGGSLRLSCVASGYVHKINFYGWYRQAPGKEREKVAHISIGDQTDYADSAKGRFTISRDESKNTVYLQMNSLRPEDTAAYYCRALSRIYPYDYWGQGTLVTVSS
B10: T017000976 (VHH)
VHH: EVQLVESGGGVVQPGGSLRLSCVASGYVHKINFYGWYRQAPGKEREKVAHISIGDQTDYARSAKGRFTISRDESKNTVYLQMNSLRPEDTAAYYCRALSRIYPYDYWGQGTLVTVSS

Target: T1, cynomolgus TCRαβ-zipper protein
Test: SPR ProteOn XPR36, multi-cycle kinetics, TCR-zipper immobilized;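 also: monovalent His-tagged ISVD constructs flowed at six concentrations over amine-coupled TCR on a GLC chip, 120 s association, 600 s dissociation, double-referenced, fitted to 1:1 Langmuir model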
Protocol: Binding of purified, monovalent TCE-FLAG3-HIS6 and TCE-HIS6 ISVD constructs to human TCRαβ-zipper protein (huTCR(2XN9)-zipper, in-house produced) and cynomolgus TCRαβ-zipper protein (cyTCR(AEA41865)-zipper, in-house produced) was probed by Surface Plasmon Resonance (SPR) (Bio-rad Laboratories, Inc., ProteOn XPR36). Both targets were immobilized on a GLC sensor chip (short matrix, normal capacity) using standard amine coupling chemistry. ISVD constructs were injected at 6 different concentrations in a multi-cycle kinetics (MCK) experiment. Each concentration of the ISVDs was injected for 120s and dissociation was assessed during 600s.
Data was double referenced by subtracting a reference analyte lane and a blank buffer injection. Affinity constants (ka, kd and KD) were calculated applying the Langmuir 1:1 interaction model using the ProteOn Manager 3.1.0 (Bio-rad Laboratories, Inc., Version 3.1.0.6).

Row | Binder | Kd | KD ratio cy/huTCR | KD ratio vs ref | koff | kon
1 | B1 | 8 nM |  |  |  | 
2 | B2 | 6.7 nM | 3.2 | 0.8 | 0.0019 s⁻¹ | 280000 M⁻¹ s⁻¹
3 | B3 | 6.1 nM | 3.2 | 0.8 | 0.0019 s⁻¹ | 320000 M⁻¹ s⁻¹
4 | B4 | 7 nM | 3 | 0.9 | 0.0019 s⁻¹ | 280000 M⁻¹ s⁻¹
5 | B5 | 7.1 nM | 3.1 | 0.9 | 0.0018 s⁻¹ | 260000 M⁻¹ s⁻¹
6 | B6 | 7 nM | 3.1 | 0.9 | 0.0019 s⁻¹ | 270000 M⁻¹ s⁻¹
7 | B7 | 6.8 nM | 3.2 | 0.8 | 0.0019 s⁻¹ | 280000 M⁻¹ s⁻¹
8 | B8 | 7.4 nM | 3 | 0.9 | 0.002 s⁻¹ | 260000 M⁻¹ s⁻¹
9 | B9 | 14 nM | 3.1 | 1.7 | 0.0028 s⁻¹ | 200000 M⁻¹ s⁻¹
10 | B10 | 15 nM | 3.9 | 1.9 | 0.0035 s⁻¹ | 230000 M⁻¹ s⁻¹
